T1: IL-2Rα on the surface of KIT225 or F15R-Kit cells (human, UniProt P01589 22-272)
T1 construct: whole, on cells; KIT225 cells also carry some IL-2Rβ and IL-2Rγ; also called IL-2 receptor α subunit; p55
T1 sequence (looked up): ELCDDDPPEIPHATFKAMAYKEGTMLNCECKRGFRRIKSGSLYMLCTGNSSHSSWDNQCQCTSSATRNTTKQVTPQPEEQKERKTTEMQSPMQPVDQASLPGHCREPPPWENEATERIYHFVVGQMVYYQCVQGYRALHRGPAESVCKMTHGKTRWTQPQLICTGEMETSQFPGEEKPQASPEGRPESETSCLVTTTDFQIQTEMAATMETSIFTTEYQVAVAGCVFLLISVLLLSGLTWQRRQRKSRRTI

T2: IL-2Rβ on YT-2C2 cells (human, UniProt P14784 27-551)
T2 construct: whole, on cells; YT-2C2 cells express about 20,000 IL-2Rβγ, so IL-2Rγ is also present; also called p75
T2 sequence (looked up): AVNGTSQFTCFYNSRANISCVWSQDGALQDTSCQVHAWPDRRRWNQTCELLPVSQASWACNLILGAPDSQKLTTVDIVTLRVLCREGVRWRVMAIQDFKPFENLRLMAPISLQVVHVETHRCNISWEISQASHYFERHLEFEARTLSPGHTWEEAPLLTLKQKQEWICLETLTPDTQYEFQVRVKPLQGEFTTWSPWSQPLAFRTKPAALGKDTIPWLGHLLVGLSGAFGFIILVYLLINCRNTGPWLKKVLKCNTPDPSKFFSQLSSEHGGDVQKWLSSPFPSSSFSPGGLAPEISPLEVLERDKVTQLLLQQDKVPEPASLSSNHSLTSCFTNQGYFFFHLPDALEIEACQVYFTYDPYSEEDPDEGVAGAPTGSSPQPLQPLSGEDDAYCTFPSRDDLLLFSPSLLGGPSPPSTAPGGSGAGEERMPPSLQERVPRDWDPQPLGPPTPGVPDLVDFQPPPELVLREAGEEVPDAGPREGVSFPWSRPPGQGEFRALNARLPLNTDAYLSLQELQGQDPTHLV


How the values were obtained:
[1] = target: T3, IL-15Rα on F15R-Kit cells (UniProt Q13261 31-267); experiment: flow cytometry on F15R-Kit cells
T3 construct: whole, on cells
T3 sequence (Q13261 31-267, stated change not applied): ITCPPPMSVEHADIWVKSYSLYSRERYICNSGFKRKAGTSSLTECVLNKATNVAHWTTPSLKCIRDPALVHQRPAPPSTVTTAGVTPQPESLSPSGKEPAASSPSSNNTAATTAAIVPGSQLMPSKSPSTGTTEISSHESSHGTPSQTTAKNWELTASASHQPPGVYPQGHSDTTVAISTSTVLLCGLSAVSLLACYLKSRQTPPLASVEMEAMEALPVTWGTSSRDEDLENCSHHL

[2] = target: T1, IL-2Rα on the surface of KIT225 or …; experiment: flow cytometry on KIT225 cells, 37 C; the reference value is cited from the literature
[3] = target: T2, IL-2Rβ on YT-2C2 cells; experiment: flow cytometry on YT-2C2 cells, on ice, anti-FLAG detection, global fit
[4] = target: T1, IL-2Rα on the surface of KIT225 or …; experiment: flow cytometry on F15R-Kit cells, 30 min at 37 C, pH 7.4
Method: (pH 7.4). Cell surface bound protein was measured using flow cytometry. Data from two different experiments (FIG. 12) were used to estimate Kd values.

[5] = target: T1, IL-2Rα on the surface of KIT225 or …; experiment: flow cytometry on KIT225 cells, 37 C, anti-FLAG detection
From the text: Cells were washed with ice-cold PBS, pH 7.4, containing 0.1% bovine serum albumin (BSA) and labeled with a biotinylated antibody against the FLAG epitope followed by streptavidin-phycoerythrin on ice. We washed the cells again and determined mean single cell fluorescence using an EPICS-XL flow cytometer.

Row | Binder | binding result [1] | fold improvement in binding affinity relative to a wild-type Kd value of 28 nM (literature) [2] [fold] | Kd [3] [nM] | Kd [4] [nM] | Kd [5] [nM]
1 | IL-2 mutant M6 (V69A, Q74P, I128T) (ligand, not shown: small tags and cut ends, Soluble form secreted from yeast) APTSSSTKKTQLQLEHLLLDLQMILNGINNYKNPKLTRMLTFKFYMPKKATELKHLQCLEEELKPLEEALNLAPSKNFHLRPRDLISNINVIVLELKGSETTFMCEYADETATIVEFLNRWITFSQSTISTLT | no binding | ≥ 30 | 210 | 1.22 | ~1
2 | IL-2 mutant 2-4 (ligand, not shown: small tags and cut ends, also called N31618-14_; N31610-14_) APTSSSTKKTQLQLEHLLLDLQMILNGISNHKNPRLARMLTFKFYMPEKATELKHLQCLEEELKPLEEALRLAPSKNFHLRPRDLISDVNVIVLELKGSETTFMCEYADETATIVEFLNRWITFSQSIISTLT | no binding | – | – | 0.18 | –
3 | IL-2 mutant 1a-1 (ligand, not shown: small tags and cut ends, also called N31610-01_) APTSSSTKKTQLQLEHLLLDLQMILNGINSYKNPKLTRMLTFKFYMPKKATELKHLQCLEEELKPLEDALALAPPRNFHLRPRDLISNIHVIVLELKGSETTFMCEYADETATIVEFLNRWITFSQSIISTLT | no binding | – | – | 0.254 | –

Next, values leading:

Row | binding result [1] | fold improvement in binding affinity relative to a wild-type Kd value of 28 nM (literature) [2] [fold] | Kd [3] [nM] | Kd [4] [nM] | Kd [5] [nM] | Binder
4 | no binding | – | – | 1.58 | – | IL-2 mutant WC9 (ligand, not shown: small tags and cut ends, also called N31610-18_) APTPSSTKKARLQLEHLLLDLQMILNGINNYKNPKLTRMLTFKFYMPKKATELKHLQCLEEELKPLEEALNLAPSKNFHLRPRDLISDINVIVLELKGSETTFMCEYADETATIVEFLNRWITFSQSIISTLA
5 | no binding | – | – | 0.409 | – | IL-2 mutant 1b-8 (ligand, not shown: small tags and cut ends, also called N31618-08_) APTSSSTRKTQLRLEHLLLDLQMILDGINTYKNPRLRRMLTFKFYMPKKATELKHLQCLEEELKPLEEALNLAPSKNFHLRPRDLISNINVTVLELKGSETTFMCEYADETATIVEFLNRWITFSQSIISTLT
6 | no binding | – | – | 0.778 | – | IL-2 mutant WE3 (ligand, not shown: small tags and cut ends, also called N31610-25_) APTSSSTKKTQLQLEHLLLDLQMILNGINSYKNPKLTRMLTFKFYMPKKATELKHLQCLEEELKPLEEALNLAPSKNFHLRPRDLISNINVIVLELKGSETTFMCEYADETATIVEFLNRWITFSQSTISTLT

Source: US20050142106A1 (MIT, published 2005)
